Laboratory results taken from patent publication US20130315910A1 (Xencor, published 2013).

T1: human FcγRIIa (131H), His- and GST-tagged (human, UniProt P12318 34-217)
T1 construct: also called H131 FcγRIIa; HIIa; not shown: 6xHis and GST tags of the pTT5 vector
T1 sequence (looked up): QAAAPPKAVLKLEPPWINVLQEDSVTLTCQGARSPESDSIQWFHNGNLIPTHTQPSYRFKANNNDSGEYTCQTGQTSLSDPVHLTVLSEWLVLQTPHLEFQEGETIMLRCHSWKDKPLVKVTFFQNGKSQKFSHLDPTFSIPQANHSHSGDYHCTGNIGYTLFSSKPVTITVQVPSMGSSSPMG

T2: human FcγRIIa (131R), His- and GST-tagged (human, UniProt P12318 34-217)
T2 construct: Expressed in HEK293T cells, purified by nickel chromatography; also called R131 FcγRIIa; not shown: 6xHis and GST tags of the pTT5 vector
T2 sequence (looked up): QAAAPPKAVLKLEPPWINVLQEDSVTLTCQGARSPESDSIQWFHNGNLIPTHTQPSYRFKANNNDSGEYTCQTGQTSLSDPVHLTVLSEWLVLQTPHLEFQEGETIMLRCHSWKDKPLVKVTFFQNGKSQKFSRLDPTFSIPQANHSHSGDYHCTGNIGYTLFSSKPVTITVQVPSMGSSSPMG

T3: human FcγRIIb receptor protein (R&D Systems) (human, UniProt P31994 46-217)
T3 construct: Bought protein injected over captured antibody in Biacore; also called CD32b
T3 sequence (looked up): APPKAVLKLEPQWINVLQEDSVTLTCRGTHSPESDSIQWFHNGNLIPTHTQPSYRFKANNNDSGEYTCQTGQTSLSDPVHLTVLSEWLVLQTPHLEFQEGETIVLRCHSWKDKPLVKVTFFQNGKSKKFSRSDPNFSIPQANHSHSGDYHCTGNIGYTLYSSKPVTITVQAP

T4: mFcγRIV
T4 construct: also called mouse FcγRIV; not shown: C-terminal His and GST tags (named only on our card)
T4 chain: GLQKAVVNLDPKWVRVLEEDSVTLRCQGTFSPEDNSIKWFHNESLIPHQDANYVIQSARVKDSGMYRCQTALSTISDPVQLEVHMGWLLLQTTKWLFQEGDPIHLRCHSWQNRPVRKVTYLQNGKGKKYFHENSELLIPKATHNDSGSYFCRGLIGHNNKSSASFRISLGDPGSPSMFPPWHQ

T5: mFcγRIIb (Mus musculus, UniProt P08101)
T5 construct: extracellular region, C-terminal His- and GST-tag; also called mouse FcγRII
T5 sequence (receptor extracellular region, looked up): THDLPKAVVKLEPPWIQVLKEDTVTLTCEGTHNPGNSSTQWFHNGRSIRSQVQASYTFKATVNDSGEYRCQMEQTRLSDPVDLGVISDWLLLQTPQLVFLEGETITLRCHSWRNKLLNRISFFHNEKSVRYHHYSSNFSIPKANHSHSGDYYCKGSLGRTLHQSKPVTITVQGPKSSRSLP

T6: cynoFcγRIIb (Macaca fascicularis, UniProt A0A140HDP4)
T6 construct: extracellular region, C-terminal His- and GST-tag; also called cynomolgus monkey FcγRIIb
T6 sequence (receptor extracellular region): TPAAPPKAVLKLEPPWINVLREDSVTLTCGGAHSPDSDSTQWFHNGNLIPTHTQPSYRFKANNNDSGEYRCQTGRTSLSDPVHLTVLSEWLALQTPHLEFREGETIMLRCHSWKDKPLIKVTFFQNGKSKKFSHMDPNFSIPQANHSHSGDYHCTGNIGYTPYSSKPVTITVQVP


Legend:
[1] = target: T1, human FcγRIIa (131H), His- and …; assay: SPR
[2] = target: T7, human FcγRI receptor protein (R&D Systems) (human, UniProt P12314 16-288); assay: SPR
T7 construct: also called soluble FcγRI; solFcγRI

[3] = target: T2, human FcγRIIa (131R), His- and …; assay: SPR
[4] = target: T3, human FcγRIIb receptor protein (R&D …); assay: SPR
[5] = target: T8, human FcγRIIIa (158V), His- and GST-tagged (human, UniProt P08637 17-208); assay: SPR
T8 construct: also called V158 FcγRIIIa; VIIIa; not shown: 6xHis and GST tags of the pTT5 vector

mFcγRIV = target: T4, mFcγRIV; assay: SPR
cynoFcγRIIIa = target: T9, cynoFcγRIIIa (Macaca fascicularis, UniProt Q8SPW2); assay: SPR
T9 construct: extracellular region, C-terminal His- and GST-tag; also called cynomolgus monkey FcγRIIIa

mFcγRIIb [6] = target: T5, mFcγRIIb; assay: SPR
cynoFcγRIIb = target: T6, cynoFcγRIIb; assay: SPR, off-rate
Protocol: (§1) Variants were screened for receptor affinity using Biacore™ technology, also referred to as Biacore herein, a surface plasmon resonance (SPR) based technology for studying biomolecular interactions in real time. SPR measurements were performed using a Biacore 3000 instrument (Biacore, Piscataway, N.J.). A protein A/G (Pierce Biotechnology) CM5 biosensor chip (Biacore) was generated using a standard primary amine coupling protocol. All measurements were performed using HBS-EP buffer (10 mM HEPES pH 7.4, 0.15 M NaCl, 3 mM EDTA, 0.005% vol/vol surfactant P20, Biacore). Antibodies at 20 nM or 50 nM in HBS-EP buffer were immobilized on the protein A/G surface and FcγRs were injected. After each cycle, the surface was regenerated by injecting glycine buffer (10 mM, pH 1.5). Data were processed by zeroing time and response before the injection of FcγR and by subtracting appropriate nonspecific signals (response of reference channel and injection of running buffer). Kinetic analyses were performed by global fitting of binding data with a 1:1 Langmuir binding model using BIAevaluation software (Biacore).
(§2) Variant antibodies were tested for their affinity to mouse or cynologous monkey FcγRs using Biacore SPR as described above. Specifically, antibodies were first immobilized on a protein A/G chip to high density, and then followed by injections of the extracellular domain of the mouse or cynologous monkey FcγR of interest. Both association and dissociation phases were tracked in real time using the Biacore technology.

mFcγRIIb [7] = target: T5, mFcγRIIb; assay: SPR, off-rate
Protocol: as §1, §2
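Throughout, for Fold vs WT IgG1 (off-rate): fold improvement over WT IgG1 so higher means slower dissociation than WT.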

T9 sequence (Q8SPW2 17-208): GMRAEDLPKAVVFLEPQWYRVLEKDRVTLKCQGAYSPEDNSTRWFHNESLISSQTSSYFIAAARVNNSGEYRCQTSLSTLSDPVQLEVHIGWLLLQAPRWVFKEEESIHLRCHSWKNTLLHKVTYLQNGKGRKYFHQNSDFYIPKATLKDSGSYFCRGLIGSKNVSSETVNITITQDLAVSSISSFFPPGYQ
T7 sequence (P12314 16-288 limits assumed): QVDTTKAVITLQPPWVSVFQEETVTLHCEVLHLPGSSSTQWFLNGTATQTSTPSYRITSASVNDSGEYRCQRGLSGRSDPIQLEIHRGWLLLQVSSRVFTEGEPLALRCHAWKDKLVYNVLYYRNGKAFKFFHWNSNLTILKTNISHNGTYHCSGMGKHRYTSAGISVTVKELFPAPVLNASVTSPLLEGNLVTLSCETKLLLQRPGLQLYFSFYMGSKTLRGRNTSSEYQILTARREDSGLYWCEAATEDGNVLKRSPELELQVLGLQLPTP
T8 sequence (P08637 17-208 F176V): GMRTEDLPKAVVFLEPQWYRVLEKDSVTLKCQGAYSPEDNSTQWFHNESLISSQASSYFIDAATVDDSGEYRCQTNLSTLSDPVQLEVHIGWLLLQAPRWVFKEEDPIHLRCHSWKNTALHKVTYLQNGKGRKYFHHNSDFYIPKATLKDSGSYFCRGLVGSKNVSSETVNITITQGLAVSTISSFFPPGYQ

Row | Binder | binding result [1] | Fold vs WT IgG1 [2] [fold] | Kd [2] [µM] | Fold vs WT IgG1 [3] [fold] | Kd [3] [µM] | Fold vs WT IgG1 [4] [fold] | Kd [4] [µM] | binding result [5] | Fold vs WT IgG1 (off-rate) (mFcγRIV) [fold] | Fold vs WT IgG1 (off-rate) (cynoFcγRIIIa) [fold] | Fold vs WT IgG1 (off-rate) (mFcγRIIb [6]) [fold] | binding result (cynoFcγRIIb) | binding result (mFcγRIIb [7]) | binding result [3] | binding result [4] | Fold vs WT IgG1 [1] [fold] | Kd [1] [µM] | Fold vs WT IgG1 [5] [fold] | Kd [5] [µM]
1 | A327N (antibody, human IgG1, kappa, HuAM4G7 anti-CD19 IgG1 (m1) with this Fc substitution, EU index; copies: 2 + 2) heavy: not shown light: DIVMTQSPATLSLSPGERATLSCRSSKSLQNVNGNTYLYWFQQKPGQSPQLLIYRMSNLNSGVPDRFSGSGSGTEFTLTISSLEPEDFAVYYCMQHLEYPITFGAGTKLEIKRTVAAPSVFIFPPSDEQLKSGTASVVCLLNNFYPREAKVQWKVDNALQSGNSQESVTEQDSKDSTYSLSSTLTLSKADYEKHKVYACEVTHQGLSSPVTKSFNRGEC | no binding | 0.0279 | 0.0118 | 0.609 | 1.41 | 0.843 | 1.74 | no binding | 1.16 | 0.313 | 0.643 | no binding | – | – | – | – | – | – | –
2 | S298D (antibody, human IgG1, kappa, HuAM4G7 anti-CD19 IgG1 (m1) with this Fc substitution, EU index; copies: 2 + 2) heavy: not shown light: DIVMTQSPATLSLSPGERATLSCRSSKSLQNVNGNTYLYWFQQKPGQSPQLLIYRMSNLNSGVPDRFSGSGSGTEFTLTISSLEPEDFAVYYCMQHLEYPITFGAGTKLEIKRTVAAPSVFIFPPSDEQLKSGTASVVCLLNNFYPREAKVQWKVDNALQSGNSQESVTEQDSKDSTYSLSSTLTLSKADYEKHKVYACEVTHQGLSSPVTKSFNRGEC | – | – | – | 1.45 | 0.592 | 0.797 | 1.84 | – | 0.618 | 0.309 | – | no binding | no binding | – | – | – | – | – | –
3 | L235E (antibody, human IgG1, kappa, HuAM4G7 anti-CD19 IgG1 (m1) with this Fc substitution, EU index; copies: 2 + 2) heavy: not shown light: DIVMTQSPATLSLSPGERATLSCRSSKSLQNVNGNTYLYWFQQKPGQSPQLLIYRMSNLNSGVPDRFSGSGSGTEFTLTISSLEPEDFAVYYCMQHLEYPITFGAGTKLEIKRTVAAPSVFIFPPSDEQLKSGTASVVCLLNNFYPREAKVQWKVDNALQSGNSQESVTEQDSKDSTYSLSSTLTLSKADYEKHKVYACEVTHQGLSSPVTKSFNRGEC | – | – | – | 0.333 | 2.58 | 0.55 | 2.67 | – | 0.857 | 0.367 | – | no binding | no binding | – | – | – | – | – | –
4 | S298E (antibody, human IgG1, kappa, HuAM4G7 anti-CD19 IgG1 (m1) with this Fc substitution, EU index; copies: 2 + 2) heavy: not shown light: DIVMTQSPATLSLSPGERATLSCRSSKSLQNVNGNTYLYWFQQKPGQSPQLLIYRMSNLNSGVPDRFSGSGSGTEFTLTISSLEPEDFAVYYCMQHLEYPITFGAGTKLEIKRTVAAPSVFIFPPSDEQLKSGTASVVCLLNNFYPREAKVQWKVDNALQSGNSQESVTEQDSKDSTYSLSSTLTLSKADYEKHKVYACEVTHQGLSSPVTKSFNRGEC | – | – | – | – | – | – | – | – | 0.136 | 0.046 | – | no binding | no binding | no binding | no binding | – | – | – | –
5 | L235N (antibody, human IgG1, kappa, HuAM4G7 anti-CD19 IgG1 (m1) with this Fc substitution, EU index; copies: 2 + 2) heavy: not shown light: DIVMTQSPATLSLSPGERATLSCRSSKSLQNVNGNTYLYWFQQKPGQSPQLLIYRMSNLNSGVPDRFSGSGSGTEFTLTISSLEPEDFAVYYCMQHLEYPITFGAGTKLEIKRTVAAPSVFIFPPSDEQLKSGTASVVCLLNNFYPREAKVQWKVDNALQSGNSQESVTEQDSKDSTYSLSSTLTLSKADYEKHKVYACEVTHQGLSSPVTKSFNRGEC | – | – | – | 0.0356 | 24.1 | 0.147 | 10 | – | 0.241 | 0.351 | – | no binding | no binding | – | – | – | – | – | –
6 | A327Q (antibody, human IgG1, kappa, HuAM4G7 anti-CD19 IgG1 (m1) with this Fc substitution, EU index; copies: 2 + 2) heavy: not shown light: DIVMTQSPATLSLSPGERATLSCRSSKSLQNVNGNTYLYWFQQKPGQSPQLLIYRMSNLNSGVPDRFSGSGSGTEFTLTISSLEPEDFAVYYCMQHLEYPITFGAGTKLEIKRTVAAPSVFIFPPSDEQLKSGTASVVCLLNNFYPREAKVQWKVDNALQSGNSQESVTEQDSKDSTYSLSSTLTLSKADYEKHKVYACEVTHQGLSSPVTKSFNRGEC | – | – | – | 0.634 | 1.35 | 0.011 | 134 | – | 0.361 | 0.223 | – | no binding | no binding | – | – | – | – | – | –
7 | L234N (antibody, human IgG1, kappa, HuAM4G7 anti-CD19 IgG1 (m1) with this Fc substitution, EU index; copies: 2 + 2) heavy: not shown light: DIVMTQSPATLSLSPGERATLSCRSSKSLQNVNGNTYLYWFQQKPGQSPQLLIYRMSNLNSGVPDRFSGSGSGTEFTLTISSLEPEDFAVYYCMQHLEYPITFGAGTKLEIKRTVAAPSVFIFPPSDEQLKSGTASVVCLLNNFYPREAKVQWKVDNALQSGNSQESVTEQDSKDSTYSLSSTLTLSKADYEKHKVYACEVTHQGLSSPVTKSFNRGEC | – | – | – | – | – | – | – | – | 0.2 | 0.371 | – | no binding | no binding | no binding | no binding | – | – | – | –
8 | anti-CD19 antibody HuAM4G7 IgG1 S267G (antibody, Positions in EU numbering; copies: 2 + 2) heavy: not shown light: DIVMTQSPATLSLSPGERATLSCRSSKSLQNVNGNTYLYWFQQKPGQSPQLLIYRMSNLNSGVPDRFSGSGSGTEFTLTISSLEPEDFAVYYCMQHLEYPITFGAGTKLEIKRTVAAPSVFIFPPSDEQLKSGTASVVCLLNNFYPREAKVQWKVDNALQSGNSQESVTEQDSKDSTYSLSSTLTLSKADYEKHKVYACEVTHQGLSSPVTKSFNRGEC | – | – | 0.000626 | – | 0.517 | – | 1.45 | – | – | – | – | no binding | no binding | – | – | – | – | – | –
9 | L235A (antibody, human IgG1, kappa, HuAM4G7 anti-CD19 IgG1 (m1) with this Fc substitution, EU index; copies: 2 + 2) heavy: not shown light: DIVMTQSPATLSLSPGERATLSCRSSKSLQNVNGNTYLYWFQQKPGQSPQLLIYRMSNLNSGVPDRFSGSGSGTEFTLTISSLEPEDFAVYYCMQHLEYPITFGAGTKLEIKRTVAAPSVFIFPPSDEQLKSGTASVVCLLNNFYPREAKVQWKVDNALQSGNSQESVTEQDSKDSTYSLSSTLTLSKADYEKHKVYACEVTHQGLSSPVTKSFNRGEC | – | 0.0179 | 0.0184 | 0.166 | 5.18 | 0.351 | 4.18 | – | 0.496 | 0.53 | – | no binding | no binding | – | – | 0.0486 | 13.3 | 0.314 | 0.609
